Like-named read-outs stand apart in the source and are kept apart here. Positions of bridges follow the written chain, without caps; N, C: chain ends. *: point of attachment. Boc = CC(C)(C)OC(=O)*
Assays:
[1] = target: T1, AQP4 (Homo sapiens, UniProt P55087); details: liposome-based assay; cited from earlier work
[2] = target: T2, AQP1 (Homo sapiens, UniProt P29972); details: cited from earlier work
T2 sequence (P29972 1-269): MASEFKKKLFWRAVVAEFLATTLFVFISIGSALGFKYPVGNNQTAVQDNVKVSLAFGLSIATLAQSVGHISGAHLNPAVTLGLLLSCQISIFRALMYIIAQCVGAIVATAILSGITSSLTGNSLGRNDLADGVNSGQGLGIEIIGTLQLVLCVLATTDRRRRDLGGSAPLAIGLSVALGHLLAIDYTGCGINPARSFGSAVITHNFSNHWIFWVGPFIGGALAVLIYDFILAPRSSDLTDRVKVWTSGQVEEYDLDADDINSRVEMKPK

[3] = target: T1, AQP4; details: cited from earlier work
[4] = test system: crude membranes from rat cerebellum; assay: Radioligand binding assay of [3H]peptide on crude membranes from rat cerebellum
Experimental: The radiolabelled compound denoted [3H]peptide was custom synthesised from the unsaturated precursor 29 (Example 27) by Perkin Elmer Health Sciences Inc., 549 Albany Street, Boston, Mass. 02118, U.S.A. The radioactive compound was received as an EtOH solution. The total activity of the sample was 1 mCi. and the radiological concentration was 2 mCi/mL. The specific activity was 42.9 Ci/mmol and the radiochemical purity (determined by HPLC) 99.8%. The specific activity was determined by mass spectrometry.
Female Wistar rats weighing 250-300 g (Mollegaard, Ejby, Denmark) were used. Experimental protocols conform to National Institutes of Health guidelines for the care and use of animals.
Brain cerebella (1:5 wt/vol) in ice cold 0.3 M sucrose, 50 mM Hepes, pH 7.4, 2 mM EDTA, protease inhibitors (Complete; Roche, Mannheim, Germany) were homogenised in clay-beads-containing tubes by Fastprep shaker and centrifuged at 1,000 g for 10 min at 4° C. The supernatant was spun down at 42,000 g for 60 min at 4° C. […] Protein concentration was determined by the DC Protein Assay Kit (Bio-Rad). […]
Binding data were analysed by non-linear regression using Microsoft Excel with the Solver add-in. The non-specific binding was assumed to be linear as a function of the concentration of free [^3H]peptide and analysed by linear regression. […]

[5] = target: crude membranes from rat cerebellum (rat); assay: radioligand saturation binding, non-linear regression, fit weighted 1/Y^2
[6] = target: crude membranes from rat cerebellum (rat); assay: radioligand saturation binding, non-linear regression, fit weighted 1/Y
[7] = target: crude membranes from rat cerebellum (rat); assay: radioligand saturation binding, filter assay, crude membranes
[8] = target: crude membranes from rat cerebellum (rat); assay: radioligand saturation binding, non-linear regression, unweighted fit

T1 sequence (P55087 whole entry, species assumed): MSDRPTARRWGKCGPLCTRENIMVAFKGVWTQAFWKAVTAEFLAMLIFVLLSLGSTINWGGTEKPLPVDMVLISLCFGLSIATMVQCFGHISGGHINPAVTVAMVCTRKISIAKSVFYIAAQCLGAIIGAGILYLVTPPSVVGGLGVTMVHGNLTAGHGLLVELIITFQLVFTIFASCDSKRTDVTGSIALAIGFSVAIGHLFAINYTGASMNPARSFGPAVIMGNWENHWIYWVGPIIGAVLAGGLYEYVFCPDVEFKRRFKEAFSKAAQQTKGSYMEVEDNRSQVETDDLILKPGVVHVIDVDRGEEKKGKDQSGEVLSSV

[Cl][Hg][Cl] [mercury chloride]
Effect on AQP4 [1]: inhibit AQP4

CC[N+](CC)(CC)CC [tetraethylammonium ions, tetraethylammonium]
Effect on AQP1 ([2]; R. Søgaard et al. 2008): no effect | Effect on AQP4 ([3]; up to 10 mmolar concentration, B. Yang et al. 2006): no effect

CC(=O)Nc1nnc(S(N)(=O)=O)s1 [Acetazolamide]
Effect on water permeation through AQP1 ([2]; Y. Tanimura et al. 2009): not through AQP1 | Effect on water permeation through AQP4 ([3]; Y. Tanimura et al. 2009): reversibly inhibits | IC50 ([3]; Y. Tanimura et al. 2009, read-out: IC50 of inhibition of water permeation through AQP4): > 1000 µM

[^3H]peptide: radiolabelled compound custom synthesised from the unsaturated precursor 29 (Example 27); specific activity 42.9 Ci/mmol (Boc-PPSVVSG-OMe; bridge 3-6; not fully specified (bridges); also: tritium label)
Specific binding ([4]; difference without and with 100 μM unlabelled peptide): 0.5-1 pmol/mg membrane protein | Kd ([4]; specific binding, non-specific defined with 100 μM unlabelled peptide, read-out: Kd value (affinity)): 0.1 to 0.2 µM

Boc-PPSVVSG-OMe (bridge 3-6; also: tritium label)
Bmax [5]: 1920 cpm | Bmax (fmol/mg protein) [5]: 1000 | Kd [5]: 0.0927 µM | Bmax [6]: 1920 cpm | Bmax (fmol/mg protein) [6]: 1000 | Kd [6]: 0.0927 µM | Kd [7]: 0.1 to 0.2 µM | specific binding (Bmax) (pmol/mg membrane protein) [7]: 0.5 to 1 | Bmax [8]: 2140 cpm | Bmax (fmol/mg protein) [8]: 1120 | Kd [8]: 0.107 µM

From patent US8710008B2, “Compounds, compositions and use” (Universitetet I Oslo, priority 2008, dated 2014)
